Patent US20230159603A1 (published 2023)

B1: rhIL-12RB2-Fc (Fc fusion)
chain: KIDACKRGDVTVKPSHVILLGSTVNITCSLKPRQGCFHYSRRNKLILYKFDRRINFHHGHSLNSQVTGLPLGTTLFVCKLACINSDEIQICGAEIFVGVAPEQPQNLSCIQKGEQGTVACTWERGRDTHLYTEYTLQLSGPKNLTWQKQCKDIYCDYLDFGINLTPESPESNFTAKVTAVNSLGSSSSLPSTFTFLDIVRPLPPWDIRIKFQKASVSRCTLYWRDEGLVLLNRLRYRPSNSRLWNMVNVTKAKGRHDLLDLKPFTEYEFQISSKLHLYKGSWSDWSESLRAQTPEEEPTGMLDVWYMKRHIDYSRQQISLFWKNLSVSEARGKILHYQVTLQELTGGKAMTQNITGHTSWTTVIPRTGNWAVAVSAANSKGSSLPTRINIMNLCEAGLLAPRQVSANSEGMDNILVTWQPPRKDPSAVQEYVVEWRELHPGGDTQVPLNWLRSRPYNVSALISENIKSYICYEIRVYALSGDQGGCSSILGNSKHKAPLSGPHINAITEEKGSILISWNSIPVQEQMGCLLHYRIYWKERDSNSQPQLCEIPYRVSQNSHPINSLQPRVTYVLWMTALTAAGESSHGNEREFCLQGKAN

Key:
Assay in all cases: SPR; KD estimated
rhIL-12RB2-Fc = molecular target: B1
rhIL-12RB1-Fc = rhIL-12RB1-Fc (human, UniProt P42701 24-545)
AK384 = molecular target: AK384

Kd (rhIL-12RB2-Fc)	Kd (rhIL-12RB1-Fc)	Kd (AK384)	Binder
0.617 nM	60.1 nM	–	recombinant human IL-12 (rhIL-12) control (ligand) chain 1: IWELKKDVYVVELDWYPDAPGEMVVLTCDTPEEDGITWTLDQSSEVLGSGKTLTIQVKEFGDAGQYTCHKGGEVLSHSLLLLHKKEDGIWSTDILKDQKEPKNKTFLRCEAKNYSGRFTCWWLTTISTDLTFSVKSSRGSSDPQGVTCGAATLSAERVRGDNKEYEYSVECQEDSACPAAEESLPIEVMVDAVHKLKYENYTSSFFIRDIIKPDPPKNLQLKPLKNSRQVEVSWEYPDTWSTPHSYFSLTFCVQVQGKSKREKKDRVFTDKTSATVICRKNASISVRAQDRYYSSSWSEWASVPCS chain 2: RNLPVATPDPGMFPCLHHSQNLLRAVSNMLQKARQTLEFYPCTSEEIDHEDITKDKTSTVEACLPLELTKNESCLNSRETSFITNGSCLASRKTSFMMALCLSSIYEDLKMYQVEFKTMNAKLLMDPKRQIFLDQNMLAVIDELMQALNFNSETVPQKSSLEEPDFYKTKIKLCILLHAFRIRAVTIDRVMSYLNAS
–	–	1.7 nM	B1
